The values below come from patent US20120122711A1, “SCREENING OF BIOPOLYMERS” (priority 2009, published 2012).

The target in assay [1] is T1, bovine carbonic anhydrase II (bCAII) (Bos taurus, UniProt P00921). Briefly: Dot blot assay of biotin-conjugated peptide ligands on deposited bCAII. In kind it is binding. Particulars: for dot blot affinity/potency towards bCAII, in words: serial reduction of deposited bCAII, peptide 0.5 μM, compared with precursor. On the procedure:
Dot blot assays to measure affinity of the re-synthesized peptide ligands conjugated to biotin. […] A solution of bCAII was prepared as 10 mg/mL stocks in PBS buffer (pH 7.4). A serial dilution of the mother solution was applied to a nitrocellulose membrane, typically ranging from 2 μg to 5 ng per spot. The membrane was blocked at room temperature for 2 h in 5% nonfat milk/TBS-T. The membrane was then washed with TBS-T. […] After washing three times with TBS-T for 10 min, 1:3000 streptavidin-HRP (Abcam) prepared in 0.5% milk/TBS-T was added to the membrane and incubated for 2 h. After washing three times with TBS-T for 10 min, the membrane was treated with chemiluminescent reagents (Amersham ECL plus Western blotting detection reagents, GE Healthcare) and then immediately developed on film.

Assay [2] deals with T1, bovine carbonic anhydrase II (bCAII). Kind of assay: Surface Plasmon Resonance (SPR) of peptide ligands on immobilized bCAII. In kind it is binding. Particulars: for response in SPR sensogram, in words: compared with other peptide ligands; for maximum response (Rmax): highest concentration (1.0 μM), bCAII immobilized to RU of 1000, FIG. 14; for interaction with bCAII: acetylated peptides, FIG. 9; for association-dissociation pattern in SPR sensogram: in words. The source says:
Validation by SPR. The peptide ligands were investigated for their binding affinity towards bCAII using SPR as a validation tool. The target marker was immobilized onto CM5 sensor chip to a response unit (RU) of 1000 in a Biacore T100 system. Each peptide solution of a series of concentrations was eluted through the surface of the chip to observe the response as well as the dissociation pattern mediated by treatment of glycine-hydrochloride. As depicted in FIG. 14, the maximum responses (Rmax) by the peptide ligands increased in a stepwise fashion from the hexamer-2 to the decamers and then to the tetradecamer (8→40→140) at the highest concentration (1.0 μM).
Surface Plasmon Resonance (SPR) experiments to measure affinity of the re-synthesized peptide ligands. Affinity measurements were performed using a Biacore T100 system and research grade CM5 sensor chips (GE Heathcare). The instrument was primed with HBS-EP+ (GE Heathcare) buffer. Flow cell 1 (or 3) was used as a reference to subtract nonspecific binding, drift, and the bulk refractive index, while flow cell 2 (or 4) was immobilized with the target biomarker (bCAII) following standard procedures. A 1:1 mixture of 0.4 M EDC and 0.1 M NHS was used to activate flow cell 2 (or 4), and 0.1 mg/mL bCAII solution was injected. Blocking of the remaining activated groups was done with a 1 M solution of ethanolamine (pH 8.5). bCAII was immobilized onto the sensor chip surface by […] (RU). The instrument was then primed using running buffer (HBS-EP+). Each of the 6mer ligand candidates identified were dissolved in HBS-EP+buffer to produce 5 μM peptide stock solutions for each peptide, which were serially diluted by a factor of 2 to produce a concentration series down to 2 nM. For a given affinity measurement, these series of peptide solutions successively were injected into flow cell 2 (or 4) for […] of contact time, 5 min of dissociation time, and […] of stabilization time using a flow rate of 100 μL/min at 25° C. Flow cell 2 (or 4) was regenerated by glycine 2.5 (GE Healthcare) after injection of each peptide solution.

Assay [3] addresses human carbonic anhydrase II (hCAII) (Homo sapiens, UniProt P00918). Briefly: Dot blot experiments of peptide ligands towards hCAII. The settings on record: FIG. 9. In kind it is binding.
Assay [4] deals with bovine carbonic anhydrase II (bovine) (UniProt P00921). Kind of assay: dot blot, peptide with biotin at C-terminus on spotted bCAII.
For assay [5] the target is unchanged. Briefly: dot blot, biotinylated peptide on spotted bCAII.

Non-standard residues stand in square brackets, D forms with d. Primed or numbered codes have the meaning given here. No end group written: not given here. PEG2′ = PEG2 tether (Merck, 20 atoms)

T1 sequence (P00921 whole entry): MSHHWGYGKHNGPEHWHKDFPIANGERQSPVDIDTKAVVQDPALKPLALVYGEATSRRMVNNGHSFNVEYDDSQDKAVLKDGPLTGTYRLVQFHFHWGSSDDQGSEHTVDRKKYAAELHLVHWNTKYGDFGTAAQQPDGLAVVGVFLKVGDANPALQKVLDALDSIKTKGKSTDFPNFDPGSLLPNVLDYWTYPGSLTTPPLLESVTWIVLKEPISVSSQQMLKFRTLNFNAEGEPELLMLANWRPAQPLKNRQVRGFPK
bovine carbonic anhydrase II (bovine), sequence (P00921 2-260 limits assumed): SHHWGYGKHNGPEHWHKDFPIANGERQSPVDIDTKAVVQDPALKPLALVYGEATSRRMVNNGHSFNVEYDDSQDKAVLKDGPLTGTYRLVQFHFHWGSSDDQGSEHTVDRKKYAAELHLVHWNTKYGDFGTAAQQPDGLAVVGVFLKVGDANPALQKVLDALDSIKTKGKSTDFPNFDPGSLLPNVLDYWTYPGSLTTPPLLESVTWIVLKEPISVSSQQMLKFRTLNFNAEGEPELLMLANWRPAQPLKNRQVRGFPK

On to “ifvykr-wryp ([dI][dF][dV][dY][dK][dR][dW][dR][dY][dP]) [decamer-4, 11]”, for which the “dot blot affinity/potency towards bCAII, in words” value in assay [1] is recorded as “most prominent”.
Turning to “ryrr-ifvykr ([dR][dY][dR][dR][dI][dF][dV][dY][dK][dR]) [decamer-3, 10]”, the “dot blot affinity/potency towards bCAII, in words” value in assay [1] was “most prominent”.
On to “ifvykr ([dI][dF][dV][dY][dK][dR]) [hexamer-2]”, for which, in assay [2], the “response in SPR sensogram, in words” value was “even better property than hexamer-1” and the “maximum response (Rmax)” value was 8 RU. Further, the “dot blot affinity/potency towards bCAII, in words” value in assay [1] is given as “even better property than hexamer-1”.
Regarding lhrywf [hexamer-1], the “interaction with bCAII” value in assay [2] is reported as “interacting with bCAII”. Moreover, the “affinity (KD) in a Surface Plasmon Resonance (SPR) study” value in assay [2] (first-generation anchor peptide against bCAII) is “a few”. In assay [3], the “dot blot potency towards hCAII compared with bCAII” value was “more potent”.
With “ryrr-ifvykr-wryp ([dR][dY][dR][dR][dI][dF][dV][dY][dK][dR][dW][dR][dY][dP]-{PEG2′-biotin}) [tetradecamer-N2C, 12]”, in assay [2], the “maximum response (Rmax)” value turned out to be 140 RU and the “association-dissociation pattern in SPR sensogram” value was “more antibody-like pattern”. Moreover, in assay [1] (peptide ligand 0.1 μM), the “dot blot affinity compared with the two precursors decamer-N2 and decamer-C2” value is reported as “not dramatically improved”; the “dot blot potency compared with initial anchor hexamer-2” value is “far more potent”.
Substance decamer-4 (ifvykr-wryp) (peptide) came in with a lowest amount of deposited bCAII giving a developed spot in assay [4] of 20 ng.
Take decamer-3 (ryrr-ifvykr) (peptide): the lowest amount of deposited bCAII giving a developed spot in assay [5] was determined as 20 ng.
As for “kvtflhrywf (Ac-[dK][dV][dT][dF][dL][dH][dR][dY][dW][dF]-NH2) [decamer-N1, 8, D-amino acids, acetylated]”, in assay [2], the “interaction with bCAII” value was “interacting with bCAII”; the “response in SPR sensogram, in words” value is listed as “higher response unit (RU)”; the “association-dissociation pattern in SPR sensogram” value is “much more antibody-like behavior”. Further, in assay [1], the “dot blot affinity/potency towards bCAII, in words” value is listed as “more potent”. Further, the “dot blot potency towards hCAII compared with bCAII” value in assay [3] is on record as “similarly potent”.
